Experimental findings from patent publication US20170008937 are described below.

The target in this series is GST-Rac1 (UniProt P63000).

Consider “TcdASAS (Clostridium difficile toxin A with VNN mutated to SAS: V1109S, N1110A, N1111S)”, for which the “Rac1 glucosylation in vitro (Western blot, 100 nM toxin, 3 hours)” value is on record as “not impaired in their capacity to glucosylate Rac1 in vitro”.
